Patent publication US20120009181A1

Biological target: human folate receptor 1 (FOLR1) (human)

MorAb-003 (Farletuzumab) (antibody)
EC50 of ADCC activity on IGROV-1 cells: 0.16 ng/mL
